Laboratory results from patent publication US20260242492A1 (JOINT STOCK COMPANY BIOCAD, published 2026).

Assays:
[1] = target: T1, extracellular domain of the human CSF1R protein (hCSF1R_His) (human, UniProt P07333 20-512); experiment: BLI (Octet RED 384), antibody-like molecule on ProA sensors, hCSF1R_His analyte 174.2 nM, 1:1 model
T1 construct: range 20-512; Made in CHO cells, molecular weight 57.4 kDa as printed; not shown: C-terminal His-tag and FLAG-tag
Method: (§1) Experiments were carried out using a kinetic buffer solution (hereinafter referred to as 1×KB); volume fraction of added Tween 20 was 0.1%; mass fraction of added BSA (bovine serum albumin) was 0.1%; pH 7.4. Before the measurement, the ProA sensors were regenerated with a solution of 50 mM glycine and hydrochloric acid, pH 1.8 (5 seconds in the regenerating solution, 5 seconds in 1×KB, three repetitions).
In the case of the hPDlex-H6F and hCSF1R_His antigens, the Protein A (ProA) biosensors (ForteBio) were immersed in a solution with antibody-like molecules at a concentration of 10 µg/ml for 300 seconds to immobilize same. The baseline was recorded in 1×KB for 120 seconds. Sensors loaded with the antibody-like molecule were then immersed into wells containing a solution of the target antigen (analyte) in a kinetic buffer for 300 seconds. Measurements were performed for solutions with hPDlex-H6F analyte at concentrations of 10 µg/ml (485.4 nM), for solutions with hCSF1R_His analyte at concentrations of 10 µg/ml (174.2 nM). Complex dissociation in 1×KB was then detected for 600 seconds.
(§2) To obtain numerical values of kinetic constants (kon is the on/association rate constant, kdis is the dissociation rate constant, KD is the equilibrium dissociation constant or affinity constant), the resulting sensograms were processed according to the 1:1 interaction model using Global Fit (selection of one set of kon, kdis, KD constants to analyze several sensograms of different concentrations) of the ForteBio Octet Data Analysis 9.0 software.

[2] = target: T2, biotinylated peptide [NH2]CEPANPSEKNSPSTQYCYSIQS[CH2CH2]biotin comprising a fragment of the human CD20 … (human, [NH2] at the N-terminus; [CH2CH2]biotin at the C-terminus (so in the source)); experiment: BLI (Octet RED 384), biotinylated CD20 peptide on SAX sensors, antibody-like molecule as analyte, 1:1 model, global fit
T2 construct: Immobilized on streptavidin (SAX) sensors; also called CD20 peptide
T2 peptide: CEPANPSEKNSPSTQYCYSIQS
Method: as §1
In the case of biotinylated […], the peptide at a concentration of 2.5 μg/ml was immobilized on the surface of SAX sensors (High Precision Streptavidin (SAX) biosensors, ForteBio) for 300 seconds. The baseline was recorded in a 1×KB solution for 120 seconds. Sensors loaded with peptide were then immersed into wells containing the solution of antibody-like molecule (analyte) in 1×KB for 300 seconds. Measurements were performed for solutions with analyte (antibody-like molecule in case of CD20 peptide) at concentrations […] and 75 µg/ml. Complex dissociation was recorded in 1×KB for 60 seconds.
as §2

T1 sequence (P07333 20-512 limits assumed): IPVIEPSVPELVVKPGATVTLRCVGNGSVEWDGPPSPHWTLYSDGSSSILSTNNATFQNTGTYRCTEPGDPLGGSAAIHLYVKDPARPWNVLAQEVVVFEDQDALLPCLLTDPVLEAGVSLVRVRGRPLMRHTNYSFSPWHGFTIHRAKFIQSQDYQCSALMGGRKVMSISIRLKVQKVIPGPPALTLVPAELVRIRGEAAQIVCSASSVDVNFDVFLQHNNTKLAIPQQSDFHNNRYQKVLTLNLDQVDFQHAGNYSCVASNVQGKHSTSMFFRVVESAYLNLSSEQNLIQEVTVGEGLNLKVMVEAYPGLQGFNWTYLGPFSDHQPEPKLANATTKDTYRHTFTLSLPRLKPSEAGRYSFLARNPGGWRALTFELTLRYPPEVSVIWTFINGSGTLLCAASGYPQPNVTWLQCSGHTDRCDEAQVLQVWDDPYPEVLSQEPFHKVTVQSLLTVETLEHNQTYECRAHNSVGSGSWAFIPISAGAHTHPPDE

Kd [1]: 0.00192 µM | koff [1]: 0.000372 s⁻¹ | kon [1]: 194000 M⁻¹ s⁻¹ | Kd [2]: 2.6 µM | koff [2]: 0.418 s⁻¹ | kon [2]: 161000 M⁻¹ s⁻¹
B1: antibody-like molecule 08-006 (binds CSF1R and CD20) (bispecific antibody, human IgG1, kappa, L234A L235A)
heavy 1: QVQLVESGGGLVRPGGSLRLSCAASEFTFDDYAMSWVRQAPGKGLEWVSAISWNGGSTNYADSVKGRFTISRDNAKNSLYLQMNSLRAEDTALYYCASTVEVAHRRLYKYLEVWGQGTLVTVSSASTKGPSVFPLAPSSKSTSGGTAALGCLVKDYFPEPVTVSWNSGALTSGVHTFPAVLQSSGLYSLSSVVTVPSSSLGTQTYICNVNHKPSNTKVDKRVEPKSCDKTHTCPPCPAPEAAGGPSVFLFPPKPKDTLYITREPEVTCVVVDVSHEDPEVKFNWYVDGVEVHNAKTKPREEQYNSTYRVVSVLTVLHQDWLNGKEYKCKVSNKALPAPIEKTISKAKGQPREPQVCTLPPSRDELTKNQVSLSCAVKGFYPSDIAVEWESNGQPENNYKTTPPVLDSDGSFFLVSKLTVDKSRWQQGNVFSCSVMHEALHNHYTQKSLSLSPGK
light 1: QAGLTQPPSVSVAPGQTARITCGGNNIGSKSVHWYQQKPGQAPVLVVYGDSDRPSGIPERFSGSNSGNTATLTISRVEAGDEADYYCQVWDISSDHVVFGGGTQLTVLRTVAAPSVFIFPPSDEQLKSGTASVVCLLNNFYPREAKVQWKVDNALQSGNSQESVTEQDSKDSTYSLSSTLTLSKADYEKHKVYACEVTHQGLSSPVTKSFNRGEC
heavy 2: not shown
light 2: DIQMTQSPSSLSASVGDRVTITCRASSSVSYMHWYQQKPGKAPKPLIYAPSNLASGVPSRFSGSGSGTDFTLTISSLQPEDFATYYCQQWSFNPPTFGQGTKVEIKQRQVKPEAWLSKGPSPGPGRLQLVCHVSGFYPKPVWVMWMRGEQEQQGTQLGDILPNADWTWYLRATLDVADGEAAGLSCRVKHSSLEGQDIILYWRGSC
notes: Four distinct chains: anti-CSF1R Fab arm (hole) and Ocrelizumab Fab-like arm with b2m/CD1b alpha3 dimerization unit (knob)
